In assay [1] the target is KG1 cells surface antigen (6B protein binding surface antigen, unidentified). Nature of the assay: flow cytometry on KG1 cells, sandwich with anti-c-myc-FITC. Background: In flow cytometry, cells or beads pass a laser one at a time.
Assay [2] deals with HL60 cells surface antigens. Kind of assay: flow cytometry on HL60 cells, sandwich with anti-c-myc-FITC.

This is an account of results in US20170131281A1.

B1: 6B antibody in an scFv format (Clone 6B) (scFv, not shown: small tags and cut ends)
scFv: EVQLLESGGGLVQPGGSLRLSCAASGFTFSSYGMSWVRQAPGKGLEWVSTIRTAGRATEYADSVKGRFTISRDNSKNTLYLQMNSLRAEDTAVYYCAKSPQTFDYWGQGTLVTVSSGGGGSGGGGSGGGGSTDIQMTQSPSSLSASVGDRVTITCRASQSISSYLNWYQQKPGKAPKLLIYRASRLQSGVPSRFSGSGSGTDFTLTISSLQPEDFATYYCQQRLTIPITFGQGTKVEIKRAAA
In assay [1], B1 yielded an FITC+: % Vis of 100%, an FITC+: GeoMean of 28.1, an FITC+: mean of 29.4 and an FITC+: median of 28.4. Also, in assay [2], the FITC+: % Vis is 4.5%, the FITC+: GeoMean came out at 9.8, the FITC+: mean turned out to be 10.7 and the FITC+: median was 8.9.
